Key:
[1] = target: histone H1 (purified human histones isolated from HEK293T cells), P07305
[2] = target: T1, full-length synthetic Tat protein (aa 1-72)
T1 chain: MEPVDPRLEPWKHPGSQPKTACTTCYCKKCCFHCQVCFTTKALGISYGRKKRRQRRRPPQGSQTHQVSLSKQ

[3] = target: cyclin T1 (P-TEFb component), O60563
[4] = target: CDK9 (P-TEFb component), P50750
[5] = target: histone H3 (histones isolated from HEK293T cells)

CDK9 (P-TEFb component), P50750, sequence (P50750 whole entry): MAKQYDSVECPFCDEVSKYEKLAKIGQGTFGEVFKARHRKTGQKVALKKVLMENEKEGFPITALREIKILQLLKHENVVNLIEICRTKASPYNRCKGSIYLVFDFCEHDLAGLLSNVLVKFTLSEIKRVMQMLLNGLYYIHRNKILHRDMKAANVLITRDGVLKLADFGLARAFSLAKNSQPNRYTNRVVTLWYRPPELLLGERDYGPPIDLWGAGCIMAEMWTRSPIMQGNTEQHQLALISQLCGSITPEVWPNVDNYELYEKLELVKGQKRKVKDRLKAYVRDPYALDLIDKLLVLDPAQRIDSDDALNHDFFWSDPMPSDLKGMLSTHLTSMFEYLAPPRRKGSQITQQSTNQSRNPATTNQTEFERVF
histone H1 (purified human histones isolated from HEK293T cells), P07305, sequence (P07305 whole entry, looked up, the tested form may be a part): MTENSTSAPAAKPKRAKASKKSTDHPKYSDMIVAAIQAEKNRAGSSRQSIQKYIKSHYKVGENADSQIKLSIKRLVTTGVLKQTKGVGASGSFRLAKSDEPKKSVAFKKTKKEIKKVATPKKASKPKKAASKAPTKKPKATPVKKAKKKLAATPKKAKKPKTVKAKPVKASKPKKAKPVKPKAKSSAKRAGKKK
Sp1, P08047, sequence (P08047 whole entry): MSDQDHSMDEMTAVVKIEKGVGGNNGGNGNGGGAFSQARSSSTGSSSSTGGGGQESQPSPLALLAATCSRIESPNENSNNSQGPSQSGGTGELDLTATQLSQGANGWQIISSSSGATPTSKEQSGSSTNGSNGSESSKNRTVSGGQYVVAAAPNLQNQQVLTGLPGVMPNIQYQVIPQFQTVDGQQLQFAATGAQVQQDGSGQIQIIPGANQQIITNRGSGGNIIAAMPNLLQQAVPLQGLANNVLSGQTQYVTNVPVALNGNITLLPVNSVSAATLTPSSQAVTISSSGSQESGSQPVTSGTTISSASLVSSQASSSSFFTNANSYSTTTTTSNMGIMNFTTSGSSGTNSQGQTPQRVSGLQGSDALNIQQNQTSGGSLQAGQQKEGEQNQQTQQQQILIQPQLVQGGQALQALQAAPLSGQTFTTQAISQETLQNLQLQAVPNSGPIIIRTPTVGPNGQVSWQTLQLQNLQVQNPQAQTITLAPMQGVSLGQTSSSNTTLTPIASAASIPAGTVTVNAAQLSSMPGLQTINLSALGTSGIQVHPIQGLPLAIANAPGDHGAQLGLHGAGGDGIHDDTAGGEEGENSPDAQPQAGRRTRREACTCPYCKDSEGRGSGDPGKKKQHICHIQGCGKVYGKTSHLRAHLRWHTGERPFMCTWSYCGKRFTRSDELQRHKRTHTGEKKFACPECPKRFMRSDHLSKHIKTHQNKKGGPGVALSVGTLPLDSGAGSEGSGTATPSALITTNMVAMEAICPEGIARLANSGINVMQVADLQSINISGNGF
cyclin T1 (P-TEFb component), O60563, sequence (O60563 whole entry): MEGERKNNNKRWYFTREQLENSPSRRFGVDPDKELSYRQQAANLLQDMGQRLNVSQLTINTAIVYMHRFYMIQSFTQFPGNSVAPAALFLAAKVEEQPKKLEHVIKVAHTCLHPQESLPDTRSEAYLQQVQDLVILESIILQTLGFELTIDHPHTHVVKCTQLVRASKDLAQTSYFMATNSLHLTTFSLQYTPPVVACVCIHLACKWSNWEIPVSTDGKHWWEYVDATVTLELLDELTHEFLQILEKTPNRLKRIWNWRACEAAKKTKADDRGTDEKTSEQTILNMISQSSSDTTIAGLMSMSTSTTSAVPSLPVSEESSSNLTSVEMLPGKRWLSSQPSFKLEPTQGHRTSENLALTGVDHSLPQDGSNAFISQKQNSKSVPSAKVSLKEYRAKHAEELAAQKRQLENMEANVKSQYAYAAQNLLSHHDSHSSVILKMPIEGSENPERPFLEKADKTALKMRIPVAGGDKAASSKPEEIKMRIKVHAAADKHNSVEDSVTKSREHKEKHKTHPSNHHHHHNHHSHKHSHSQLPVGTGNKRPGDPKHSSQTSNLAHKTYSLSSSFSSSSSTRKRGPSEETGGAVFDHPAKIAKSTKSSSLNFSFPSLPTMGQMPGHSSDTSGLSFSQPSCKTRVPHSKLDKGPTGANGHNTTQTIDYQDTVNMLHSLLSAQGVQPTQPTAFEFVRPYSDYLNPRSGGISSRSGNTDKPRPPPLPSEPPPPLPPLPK
NF-kB p65 (RelA), Q04206, sequence (Q04206 whole entry): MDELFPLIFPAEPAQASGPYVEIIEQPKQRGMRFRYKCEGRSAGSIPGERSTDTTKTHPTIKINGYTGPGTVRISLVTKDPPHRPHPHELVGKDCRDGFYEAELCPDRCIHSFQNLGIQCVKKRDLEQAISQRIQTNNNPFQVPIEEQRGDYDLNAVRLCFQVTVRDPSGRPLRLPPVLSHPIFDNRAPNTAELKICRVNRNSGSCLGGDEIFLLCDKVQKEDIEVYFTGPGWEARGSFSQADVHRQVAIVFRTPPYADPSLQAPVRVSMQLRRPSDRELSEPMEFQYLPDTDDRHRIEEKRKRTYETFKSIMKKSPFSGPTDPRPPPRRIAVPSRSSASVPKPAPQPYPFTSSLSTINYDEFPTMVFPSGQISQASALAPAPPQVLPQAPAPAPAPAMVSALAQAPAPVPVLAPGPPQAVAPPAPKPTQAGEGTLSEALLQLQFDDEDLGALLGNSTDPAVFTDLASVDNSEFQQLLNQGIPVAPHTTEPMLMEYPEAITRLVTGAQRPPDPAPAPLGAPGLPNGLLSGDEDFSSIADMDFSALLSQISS

B1: recombinant full-length SMYD5 (SET and MYND domain-containing protein 5) (protein)
chain: MAASMCDVFSFCVGVAGRARVSVEVRFVSSAKGKGLFATQLIRKGETIFVERPLVAAQFLWNALYRYRACDHCLRALEKAEENAQRLTGKPGQVLPHPELCTVRKDLHQNCPHCQVMYCSAECRLAATEQYHQVLCPGPSQDDPLHPLNKLQEAWRSIHYPPETASIMLMARMVATVKQAKDKDRWIRLFSQFCNKTANEEEEIVHKLLGDKFKGQLELLRRLFTEALYEEAVSQWFTPDGFRSLFALVGTNGQGIGTSSLSQWVHACDTLELKPQDREQLDAFIDQLYKDIEAATGEFLNCEGSGLFVLQSCCNHSCVPNAETSFPENNFLLHVTALEDIKPGEEICISYLDCCQRERSRHSRHKILRENYLFVCSCPKCLAEADEPNVTSEEEEEEEEEEEGEPEDAELGDEMTDV
- in vitro methylation (3H-SAM, autoradiography) [1]: histones H3 and H1 were weakly and Tat strongly methylated by SMYD5
- in vitro methylation (3H-SAM, autoradiography) (NF-kB p65 (RelA), Q04206): no methylation was detected for Re1A, Sp1, cyclin T1 and CDK9
- LC-MS/MS of in vitro methylation products (non-radiolabeled SAM) [2]: This analysis identified a single site, trimethylation of K41, identified in two distinct peptides (not shown). No mono or dimethylation at Tat K41 was observed.
- in vitro methylation (3H-SAM, autoradiography) [2]: histones H3 and H1 were weakly and Tat strongly methylated by SMYD5
- in vitro methylation (3H-SAM, autoradiography) [3]: no methylation was detected for Re1A, Sp1, cyclin T1 and CDK9
- in vitro methylation (3H-SAM, autoradiography) [4]: no methylation was detected for Re1A, Sp1, cyclin T1 and CDK9
- in vitro methylation (3H-SAM, autoradiography) (Sp1, P08047): no methylation was detected for Re1A, Sp1, cyclin T1 and CDK9
- in vitro methylation (3H-SAM, autoradiography) [5]: histones H3 and H1 were weakly and Tat strongly methylated by SMYD5
